Data: article PMC3790952 (Chembiochem, 2013)

Assays:
purified protein = substrate: CC(C)=CCC/C(C)=C/CC/C(C)=C/CC/C(C)=C/COP(=O)(O)OP(=O)(O)O; assay: purified protein; format: biochemical, Streptomyces sp.; conditions: 10 mM MgCl2, 30 °C, GGDP 10-200 μM
SEC = target: the molecule itself; assay: SEC

Row | Protein | Km (purified protein) [µM] | kcat (purified protein) [s⁻¹] | stoichiometry N (SEC)
1 | DtcycB (enzyme, Streptomyces sp. SANK 60404, UniProt M1VDX3 1-343, looked up) MDLPPALLSFYCPIASEVSPEHEAVAQEMYAWIHAMSLTSDNRQAKMLAQAGAGFNSYFTPRARGELARALSKYNVCAWIANGMVQEIRDPGTFGAMAARWARIMEEPATCPADGIPMDFALADAFSHIRRTLSPVKWQHFSAAQSHWMHGLAWENCLHQVKGLTVHDYLSFRYVMSGCFAAAAFAYAVPERHPSAEEWAHPKVRAAADAAMMVDALDNDRYSYLKESLTEADKKTIFAALRHENPALGREEVIVRGVQLRDRILTLYLTLRGELLCDASEGLRSYLTGLDLIIAGNLVFCADMGLRYGLPEGSVRTDAEPLDRTVAPPGIGAIDHWWAQAGA | 42.1 ± 7.3 | 0.0217 | 2
2 | DtcycA (enzyme, Streptomyces sp. SANK 60404, UniProt M1V9Q0 1-371, looked up) MTDPAVTPLAFSIPQLYCPFPTAIHPEVDTLTRAGMDFMTHHGFCNTEADRLVVANIDAGAIVARWYPNPDFPVDRLQMVTDFLYLYFLIDDLRFEVINSDTGLAGPIALFAQHLDLWEYPQAHRREELDLFHQAIHDLASRMAELTTPTKAARMRRSINGWFLALLREIALFNDDHAVMAEEYLPIRVVTVASRLMIDVNGFICPAEVPGDEWYSLKVQAAAEAAMSVCLYDNELYSAGKEQWLKSRATAHDRRPRNLVALIQAQTGGSTEHALQEVAEYRNRTVCLYLNLRSQLEKTASPALLAYLSVLDGVISGNLDAHATSSRYHNPDGHHPHAIAFTPLRTTDECSARAHTPIAPPIAWWWEQLDQ | 93.7 ± 8.4 | 0.0467 | 2
